Data taken from patent US7585952 (BIOTECHNOL S A, dated 2009).

B1: Ph-Erbicin (human anti-ErbB2 scFv from type A clone, displayed on phage) (scFv)
scFv: QVQLLQSAAEVKKPGESLKISCKGSGYSFTSYWIGWVRQMPGKGLEWMGIIYPGDSDTRYSPSFQGQVTISADKSISTAYLQWSSLKASDTAVYYCARWRDSPLWGQGTLVTVSSGGGGSGGGGSGGSALQAVVTQEPSFSVSPGGTVTLTCGLSSGSVSTSYYPSWYQQTPGQAPRTLIYSTNTRSSGVPDRFSGSILGNKAALTITGAQADDESDYYCVLYMGSGQYVFGGGTKLTVLG
notes: Tested as whole phage particles carrying the scFv; also called A type phage clone; clone A
B2: Erbicin (soluble human anti-ErbB2 scFv) (scFv, not shown: small tags and cut ends)
scFv: QVQLLQSAAEVKKPGESLKISCKGSGYSFTSYWIGWVRQMPGKGLEWMGIIYPGDSDTRYSPSFQGQVTISADKSISTAYLQWSSLKASDTAVYYCARWRDSPLWGQGTLVTVSSGGGGSGGGGSGGSALQAVVTQEPSFSVSPGGTVTLTCGLSSGSVSTSYYPSWYQQTPGQAPRTLIYSTNTRSSGVPDRFSGSILGNKAALTITGAQADDESDYYCVLYMGSGQYVFGGGTKLTVLGHHHHHH
B3: hERB-RNase (Erbicin fused to human pancreatic ribonuclease) (other)
chain: QVQLLQSAAEVKKPGESLKISCKGSGYSFTSYWIGWVRQMPGKGLEWMGIIYPGDSDTRYSPSFQGQVTISADKSISTAYLQWSSLKASDTAVYYCARWRDSPLWGQGTLVTVSSGGGGSGGGGSGGSALQAVVTQEPSFSVSPGGTVTLTCGLSSGSVSTSYYPSWYQQTPGQAPRTLIYSTNTRSSGVPDRFSGSILGNKAALTITGAQADDESDYYCVLYMGSGQYVFGGGTKLTVLGAAASGGPEGGSKESRAKKFQRQHMDSDSSPSSSSTYCNQMMRRRNMTQGRCKPVNTFVHEPLVDVQNVCFQEKVTCKNGQGNCYKSNSSMHITDCRLTNGSRYPNCAYRTSPKERHIIVACEGSPYVPVHFDASVEDST

Tests used:
human ErbB2 receptor [1] = target: T1, human ErbB2 receptor (human, UniProt P04626 23-1255); assay: cell-based or functional assay
[2] = target: T2, EGF receptor (EGFR, ErbB1) on A431 cells (human, UniProt P00533 25-1210); assay: flow cytometry on A431 cells (EGFR at 2x10^6 receptors per cell)
T2 construct: whole, on cells; A431 cells also express ErbB2 at very low levels; also called homologous EGF receptor

human ErbB2 receptor [3] = target: T1, human ErbB2 receptor; assay: cell-based or functional assay; remark: listed apart in the source

| Binder | Growth Inhibition (IC50, cfu/ml), BT-474 cells, 96 h (human ErbB2 receptor [1]) [cfu/ml] | Growth Inhibition (IC50, cfu/ml), MDA-MB453 cells, 96 h (human ErbB2 receptor [1]) [cfu/ml] | Growth Inhibition (IC50, cfu/ml), NIH 3T3 (ErbB2-trasf.) cells, 96 h (human ErbB2 receptor [1]) [cfu/ml] | Growth Inhibition (IC50, cfu/ml), SK-OV-3 cells, 96 h (human ErbB2 receptor [1]) [cfu/ml] | Growth Inhibition (IC50, cfu/ml), SKBR3 cells, 96 h (human ErbB2 receptor [1]) [cfu/ml] | binding result [2] | IC50 of inhibition of SKBR3 cell proliferation, 72 h (human ErbB2 receptor [3]) | IC50 of inhibition of SKBR3 cell proliferation, expressed as scFv concentration in the phage preparation (human ErbB2 receptor [3]) [µg/mL] | antitumor activity on SKBR3 cells relative to soluble Erbicin (human ErbB2 receptor [3]) [fold] |
| --- | --- | --- | --- | --- | --- | --- | --- | --- | --- |
| B1 | 2.5e+11 | 1.4e+11 | 3.5e+11 | 4e+11 | 1.2e+10 | no binding | 2.8e+10 cfu/ml | 0.0013 | ~5000 |
| B2 |  |  |  |  |  |  | 6.4 µg/mL |  |  |
| B3 |  |  |  |  |  |  | ~20 nM |  |  |
